The results in this text go back to PMC10284700.

This experiment addresses wild-type full-length human FGFR1c, P11362. In words: proximity ligation assay (PLA) on L6 cells. The following applies: chain shown with the change; L6-FGFR1cWT cells cotreated with FGF23ΔHBS and soluble αKlotho; n = 6 microscope fields, mean ± SD; parent: est. 2.3; read off a plot.

Sequence of wild-type full-length human FGFR1c, P11362 (P11362 22-822): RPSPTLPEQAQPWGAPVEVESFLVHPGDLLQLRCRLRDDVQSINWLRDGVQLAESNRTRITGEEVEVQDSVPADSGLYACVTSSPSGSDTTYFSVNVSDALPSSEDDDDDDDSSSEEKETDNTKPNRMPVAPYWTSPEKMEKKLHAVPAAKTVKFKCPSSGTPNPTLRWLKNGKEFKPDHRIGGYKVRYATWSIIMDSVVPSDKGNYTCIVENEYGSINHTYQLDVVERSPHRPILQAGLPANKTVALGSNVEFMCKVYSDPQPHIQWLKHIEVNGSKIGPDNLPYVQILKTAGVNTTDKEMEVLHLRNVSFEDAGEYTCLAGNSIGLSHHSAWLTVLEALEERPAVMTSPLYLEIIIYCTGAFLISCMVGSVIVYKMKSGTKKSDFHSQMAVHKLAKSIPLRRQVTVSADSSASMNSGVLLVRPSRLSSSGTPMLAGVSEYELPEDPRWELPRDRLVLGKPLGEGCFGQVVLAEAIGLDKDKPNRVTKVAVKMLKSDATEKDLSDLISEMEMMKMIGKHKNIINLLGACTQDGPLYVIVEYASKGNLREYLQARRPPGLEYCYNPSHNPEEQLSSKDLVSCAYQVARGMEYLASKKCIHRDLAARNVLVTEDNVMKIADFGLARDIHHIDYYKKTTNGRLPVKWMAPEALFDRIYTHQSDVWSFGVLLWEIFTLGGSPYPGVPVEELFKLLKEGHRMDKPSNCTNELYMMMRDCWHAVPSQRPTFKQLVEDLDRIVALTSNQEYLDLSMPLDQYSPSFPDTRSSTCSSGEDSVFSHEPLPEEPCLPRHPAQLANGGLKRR

B1: full-length mature human FGF23 (residues Tyr25 to Ile251), Q9GZV9 R48A; R140A (protein)
chain: MLGARLRLWVCALCSVCSMSVLRAYPNASPLLGSSWGGLIHLYTATAANSYHLQIHKNGHVDGAPHQTIYSALMIRSEDAGFVVITGVMSRRYLCMDFRGNIFGSHYFDPENCRFQHQTLENGYDVYHSPQYHFLVSLGAAKRAFLPGMNPPPYSQFLSRRNEIPLIHFNTPIPRRHTRSAEDDSERDPLNVLKPRARMTPAPASCSQELPSAEDNSPMASDPLGVVRGGRVNTHAGGTGPEGCRPFAKFI
B1: the response (positive point/cell number) stood at 1.2.
